Experimental data as given in patent publication US20240158474A1 (SINO BIOLOGICAL, published 2024).

What was measured:
Test in all cases: double-antibody sandwich ELISA on the mixture of 13 HPV VLPs
[1] = biological target: T1, HPV31 VLP protein (human papillomavirus type 31; human …, UniProt P17388 1-475; P06416 474-499)
T1 construct: range 1-475;range 474-499; Complete VLP protein used as coating protein; also called P31SHELL(1-475Y)+HPV33L1(474K-499K)
T1 sequence: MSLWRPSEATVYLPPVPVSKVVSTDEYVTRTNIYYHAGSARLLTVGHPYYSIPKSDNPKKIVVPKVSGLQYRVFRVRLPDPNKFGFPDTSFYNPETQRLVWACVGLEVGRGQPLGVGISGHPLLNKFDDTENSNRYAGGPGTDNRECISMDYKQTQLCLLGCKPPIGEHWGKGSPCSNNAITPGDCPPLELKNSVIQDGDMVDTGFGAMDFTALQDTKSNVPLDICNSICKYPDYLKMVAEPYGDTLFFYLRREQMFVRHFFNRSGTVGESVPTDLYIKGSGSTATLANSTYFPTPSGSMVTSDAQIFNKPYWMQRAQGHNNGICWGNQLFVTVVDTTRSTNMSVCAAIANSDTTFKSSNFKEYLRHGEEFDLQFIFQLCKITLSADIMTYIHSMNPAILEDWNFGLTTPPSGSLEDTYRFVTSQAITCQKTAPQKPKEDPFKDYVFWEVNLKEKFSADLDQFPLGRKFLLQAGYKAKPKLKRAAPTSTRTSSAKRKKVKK

[2] = biological target: T2, HPV51 VLP protein (human papillomavirus type 51, UniProt P26536 1-474)
T2 construct: Complete VLP protein; no limits of the construct printed, whole entry named; also called HPV51L1
T2 sequence: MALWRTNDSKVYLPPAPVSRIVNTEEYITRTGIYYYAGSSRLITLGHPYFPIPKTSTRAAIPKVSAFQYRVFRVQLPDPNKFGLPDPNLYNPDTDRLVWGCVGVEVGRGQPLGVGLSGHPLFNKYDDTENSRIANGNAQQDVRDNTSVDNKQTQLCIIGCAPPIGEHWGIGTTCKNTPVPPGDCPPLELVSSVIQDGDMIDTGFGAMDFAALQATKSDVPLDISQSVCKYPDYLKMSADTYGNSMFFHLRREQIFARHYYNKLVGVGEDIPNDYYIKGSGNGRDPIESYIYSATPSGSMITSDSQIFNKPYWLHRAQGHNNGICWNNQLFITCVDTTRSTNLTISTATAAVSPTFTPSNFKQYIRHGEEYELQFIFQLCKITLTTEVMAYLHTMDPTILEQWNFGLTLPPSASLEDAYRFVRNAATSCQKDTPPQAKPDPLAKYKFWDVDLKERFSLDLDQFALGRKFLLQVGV

[3] = biological target: T3, HPV45 VLP protein (human papillomavirus type 45; human …, UniProt P36741 1-478; P06416 474-499)
T3 construct: range 1-478;range 474-499; Complete VLP protein used as coating protein; also called HPV45L1(1-478L)+HPV33L1(474K-499K)
T3 sequence: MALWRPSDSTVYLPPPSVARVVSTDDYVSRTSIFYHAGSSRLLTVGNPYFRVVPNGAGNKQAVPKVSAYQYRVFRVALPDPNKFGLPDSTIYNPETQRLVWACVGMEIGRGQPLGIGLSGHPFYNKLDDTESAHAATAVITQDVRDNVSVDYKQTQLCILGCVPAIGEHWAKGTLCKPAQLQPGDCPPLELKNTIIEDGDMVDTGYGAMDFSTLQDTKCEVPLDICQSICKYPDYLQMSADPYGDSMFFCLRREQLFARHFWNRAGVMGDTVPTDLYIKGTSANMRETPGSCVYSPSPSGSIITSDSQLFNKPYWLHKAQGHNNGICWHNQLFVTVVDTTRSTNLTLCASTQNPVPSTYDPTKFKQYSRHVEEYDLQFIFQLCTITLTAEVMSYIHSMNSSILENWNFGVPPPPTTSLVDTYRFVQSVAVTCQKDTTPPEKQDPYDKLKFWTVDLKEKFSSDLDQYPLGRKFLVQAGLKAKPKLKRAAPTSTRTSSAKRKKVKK

[4] = biological target: T4, HPV35 VLP protein (human papillomavirus type 35; human …, UniProt P27232 1-472; P06416 474-499)
T4 construct: range 1-472;range 474-499; Complete VLP protein used as coating protein; also called HPV35L1(1-472L)+HPV33L1(474K-499K)
T4 sequence: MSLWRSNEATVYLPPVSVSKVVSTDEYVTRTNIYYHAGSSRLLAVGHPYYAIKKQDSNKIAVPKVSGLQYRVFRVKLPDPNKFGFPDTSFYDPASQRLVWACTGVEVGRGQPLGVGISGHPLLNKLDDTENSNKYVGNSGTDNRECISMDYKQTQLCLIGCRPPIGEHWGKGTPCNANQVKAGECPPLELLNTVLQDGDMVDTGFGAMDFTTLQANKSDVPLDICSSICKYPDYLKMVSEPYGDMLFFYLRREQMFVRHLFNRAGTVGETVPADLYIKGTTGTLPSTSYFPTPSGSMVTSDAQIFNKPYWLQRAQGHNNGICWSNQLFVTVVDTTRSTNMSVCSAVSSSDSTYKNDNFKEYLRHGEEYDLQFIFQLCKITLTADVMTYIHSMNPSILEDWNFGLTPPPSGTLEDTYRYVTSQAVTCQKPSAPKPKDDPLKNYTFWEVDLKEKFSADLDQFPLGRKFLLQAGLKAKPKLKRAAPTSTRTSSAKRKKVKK

[5] = biological target: T5, HPV16 VLP protein (human papillomavirus type 16, UniProt P03101 1-474)
T5 construct: Complete VLP protein; no limits of the construct printed, whole entry named; also called HPV-16L1
T5 sequence: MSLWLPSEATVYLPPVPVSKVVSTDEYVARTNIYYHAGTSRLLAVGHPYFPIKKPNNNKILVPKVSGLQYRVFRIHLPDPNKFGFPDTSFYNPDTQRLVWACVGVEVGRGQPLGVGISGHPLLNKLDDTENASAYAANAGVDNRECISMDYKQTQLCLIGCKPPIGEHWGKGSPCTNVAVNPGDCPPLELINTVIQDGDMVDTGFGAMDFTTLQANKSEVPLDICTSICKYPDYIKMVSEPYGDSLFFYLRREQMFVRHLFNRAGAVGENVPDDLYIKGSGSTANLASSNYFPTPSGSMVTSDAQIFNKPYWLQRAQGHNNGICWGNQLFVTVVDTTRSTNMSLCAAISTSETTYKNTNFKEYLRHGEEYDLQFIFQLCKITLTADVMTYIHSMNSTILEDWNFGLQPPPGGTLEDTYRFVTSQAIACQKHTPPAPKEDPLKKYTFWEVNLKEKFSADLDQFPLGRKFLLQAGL

B1: monoclonal antibody HPV6-R003 (antibody, V domains shown)
VH: QQQLEESGGGLVKPGGTLTLTCKASGIDLSNYYMCWVRQAPGKGLEWIGCIYTGSGRTYYASWAKGRFTISKASSTTVTLQMTSLTAADTATYFCARDYLGWRASNIWGPGTLVTVSS
VL: ELVMTQTPSSVSAAVGGTVTINCQASQSVYSNNLVWYQQKPGQPPKLLIYGASTLASGVPSRFKGSGSGTQFTLTISDVVCDDAATYYCGGYVSDSTDGTAFGGGTEVVVKG
notes: here built from variable plus constant region so that the signal peptides are left out; In the sandwich ELISA the same antibody is used as coating antibody and, labelled with horseradish peroxidase, as detection antibody; also called anti-HPV6 L1 protein antibody
B1: no binding (tested: mixture 50 ng/mL, each subtype 1/13) [1]; no binding (tested: mixture 50 ng/mL, each subtype 1/13) [2]; no binding (tested: mixture 50 ng/mL, each subtype 1/13) [3]. B1: no binding (tested: mixture 50 ng/mL, each subtype 1/13) [4]; no binding (tested: mixture 50 ng/mL, each subtype 1/13) [5].
